# Measured values: paper PMC11946789, “Two Amino Acid Substitutions Improve the Pharmacological Profile of the Snake Venom Peptide Mambalgin” (Toxins, 2025)
# Like-named read-outs stand apart in the source and are kept apart here. Where no end group is shown, it is not given here.
# What was measured:
# [1] = target: rat ASIC1a channel, homomeric (rat) (UniProt P55926)
# [2] = target: rat ASIC1a channel, homomeric (rat) (UniProt P55926); remark: listed apart in the source
# [3] = target: rat ASIC1b channel, homomeric (rat) (UniProt P55926)
# Sequence of rat ASIC1b channel, homomeric (rat) (P55926 other isoform, or with tags, fused parts or gaps): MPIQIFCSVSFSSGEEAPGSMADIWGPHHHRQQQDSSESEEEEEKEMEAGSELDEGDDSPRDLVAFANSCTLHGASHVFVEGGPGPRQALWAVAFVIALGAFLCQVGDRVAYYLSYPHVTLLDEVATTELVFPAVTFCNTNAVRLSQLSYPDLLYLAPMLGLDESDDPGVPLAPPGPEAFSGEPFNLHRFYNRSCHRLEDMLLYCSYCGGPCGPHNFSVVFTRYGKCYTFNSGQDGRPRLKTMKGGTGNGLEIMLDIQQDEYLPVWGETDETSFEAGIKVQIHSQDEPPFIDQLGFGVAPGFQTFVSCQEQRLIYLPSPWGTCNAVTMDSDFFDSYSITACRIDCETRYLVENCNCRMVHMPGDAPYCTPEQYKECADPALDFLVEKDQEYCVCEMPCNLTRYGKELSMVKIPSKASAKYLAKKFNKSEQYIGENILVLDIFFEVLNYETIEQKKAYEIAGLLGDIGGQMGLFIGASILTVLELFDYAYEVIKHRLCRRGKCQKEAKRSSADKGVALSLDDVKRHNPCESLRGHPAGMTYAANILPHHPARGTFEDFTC
# [4] = test system: rASIC1b; settings: literature, cited from earlier work
# [5] = test system: rASIC1a/3; settings: reported in literature; cited from earlier work
# Sequence of rat ASIC1a channel, homomeric (rat) (P55926 whole entry): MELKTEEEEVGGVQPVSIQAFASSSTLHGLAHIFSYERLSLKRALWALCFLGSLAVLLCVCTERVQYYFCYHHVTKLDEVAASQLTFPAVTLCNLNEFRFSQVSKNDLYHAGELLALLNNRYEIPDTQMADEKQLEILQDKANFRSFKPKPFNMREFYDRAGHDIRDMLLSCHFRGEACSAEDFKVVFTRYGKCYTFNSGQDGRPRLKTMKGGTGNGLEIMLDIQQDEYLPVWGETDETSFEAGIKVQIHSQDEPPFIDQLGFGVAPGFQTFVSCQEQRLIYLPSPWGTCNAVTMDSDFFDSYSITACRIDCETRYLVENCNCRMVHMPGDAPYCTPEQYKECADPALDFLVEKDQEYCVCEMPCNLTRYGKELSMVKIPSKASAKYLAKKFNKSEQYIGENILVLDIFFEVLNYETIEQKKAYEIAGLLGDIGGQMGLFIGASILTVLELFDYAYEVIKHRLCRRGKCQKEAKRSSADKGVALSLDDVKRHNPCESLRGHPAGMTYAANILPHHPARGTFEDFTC
Substance,IC50 of inhibition of pH 5.5-evoked currents of homomeric rASIC1a in Xenopus oocytes (TEVC; peptide applied for 30 s at pH 7.4) [1],IC50 of inhibition of pH 6.7-evoked currents of homomeric rASIC1a in Xenopus oocytes (TEVC; peptide applied for 30 s at pH 7.4) [2],IC50 of inhibition of pH 5.5-evoked currents of homomeric rASIC1b in Xenopus oocytes (TEVC; peptide applied for 30 s at pH 7.4) [3],IC50 ([4]; ref 21),IC50 ([4]; ref 27),effect on rASIC1a/3 [5]
"mambalgin (Mamb), wild-type peptide (from UniProt P0DKS3 1-57)",110 nM,86 nM,119 nM,,,
"Mamb-1 (LKCYQHGKVVTCHRDMKFCYHNTGMPFRNLKLILQGCSSSCSETENNKCCSTDRCNK; ends and bridges not checked; cysteine pairing not given here; UniProt P0DKR6 22-78, looked up)",,,,192 nM,39 nM,no effect
